This note sets out measurements from IntAct's records for PubMed 28683311.

The target in experiment [1] is tnr6a_human TNRC6A (UniProt Q8NDV7).
Experiment [2] concerns the target limd1_human LIMD1 (UniProt Q9UGP4).
Experiment [3] has the same target. This is another data set of the same source.
Experiment [4] shares this target. The source holds these as a separate data set.

Sequence of limd1_human LIMD1 (Q9UGP4 whole entry): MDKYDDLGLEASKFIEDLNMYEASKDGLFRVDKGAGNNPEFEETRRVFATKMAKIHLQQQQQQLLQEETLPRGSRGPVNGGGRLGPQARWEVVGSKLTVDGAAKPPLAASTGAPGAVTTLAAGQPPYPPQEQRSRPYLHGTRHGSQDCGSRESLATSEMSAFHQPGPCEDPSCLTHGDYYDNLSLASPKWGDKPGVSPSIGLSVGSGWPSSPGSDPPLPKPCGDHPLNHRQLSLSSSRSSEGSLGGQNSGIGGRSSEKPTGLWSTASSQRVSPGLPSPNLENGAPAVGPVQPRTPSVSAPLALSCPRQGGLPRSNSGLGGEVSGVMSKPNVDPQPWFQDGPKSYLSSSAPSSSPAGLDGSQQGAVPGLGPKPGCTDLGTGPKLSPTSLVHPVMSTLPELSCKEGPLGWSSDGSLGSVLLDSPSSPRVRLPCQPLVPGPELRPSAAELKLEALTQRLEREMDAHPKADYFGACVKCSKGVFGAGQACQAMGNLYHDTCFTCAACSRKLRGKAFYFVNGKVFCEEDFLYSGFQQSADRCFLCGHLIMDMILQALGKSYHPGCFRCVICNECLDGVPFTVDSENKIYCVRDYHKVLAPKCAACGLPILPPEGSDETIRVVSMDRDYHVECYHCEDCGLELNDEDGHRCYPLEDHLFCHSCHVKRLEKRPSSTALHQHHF
Sequence of tnr6a_human TNRC6A (Q8NDV7 whole entry): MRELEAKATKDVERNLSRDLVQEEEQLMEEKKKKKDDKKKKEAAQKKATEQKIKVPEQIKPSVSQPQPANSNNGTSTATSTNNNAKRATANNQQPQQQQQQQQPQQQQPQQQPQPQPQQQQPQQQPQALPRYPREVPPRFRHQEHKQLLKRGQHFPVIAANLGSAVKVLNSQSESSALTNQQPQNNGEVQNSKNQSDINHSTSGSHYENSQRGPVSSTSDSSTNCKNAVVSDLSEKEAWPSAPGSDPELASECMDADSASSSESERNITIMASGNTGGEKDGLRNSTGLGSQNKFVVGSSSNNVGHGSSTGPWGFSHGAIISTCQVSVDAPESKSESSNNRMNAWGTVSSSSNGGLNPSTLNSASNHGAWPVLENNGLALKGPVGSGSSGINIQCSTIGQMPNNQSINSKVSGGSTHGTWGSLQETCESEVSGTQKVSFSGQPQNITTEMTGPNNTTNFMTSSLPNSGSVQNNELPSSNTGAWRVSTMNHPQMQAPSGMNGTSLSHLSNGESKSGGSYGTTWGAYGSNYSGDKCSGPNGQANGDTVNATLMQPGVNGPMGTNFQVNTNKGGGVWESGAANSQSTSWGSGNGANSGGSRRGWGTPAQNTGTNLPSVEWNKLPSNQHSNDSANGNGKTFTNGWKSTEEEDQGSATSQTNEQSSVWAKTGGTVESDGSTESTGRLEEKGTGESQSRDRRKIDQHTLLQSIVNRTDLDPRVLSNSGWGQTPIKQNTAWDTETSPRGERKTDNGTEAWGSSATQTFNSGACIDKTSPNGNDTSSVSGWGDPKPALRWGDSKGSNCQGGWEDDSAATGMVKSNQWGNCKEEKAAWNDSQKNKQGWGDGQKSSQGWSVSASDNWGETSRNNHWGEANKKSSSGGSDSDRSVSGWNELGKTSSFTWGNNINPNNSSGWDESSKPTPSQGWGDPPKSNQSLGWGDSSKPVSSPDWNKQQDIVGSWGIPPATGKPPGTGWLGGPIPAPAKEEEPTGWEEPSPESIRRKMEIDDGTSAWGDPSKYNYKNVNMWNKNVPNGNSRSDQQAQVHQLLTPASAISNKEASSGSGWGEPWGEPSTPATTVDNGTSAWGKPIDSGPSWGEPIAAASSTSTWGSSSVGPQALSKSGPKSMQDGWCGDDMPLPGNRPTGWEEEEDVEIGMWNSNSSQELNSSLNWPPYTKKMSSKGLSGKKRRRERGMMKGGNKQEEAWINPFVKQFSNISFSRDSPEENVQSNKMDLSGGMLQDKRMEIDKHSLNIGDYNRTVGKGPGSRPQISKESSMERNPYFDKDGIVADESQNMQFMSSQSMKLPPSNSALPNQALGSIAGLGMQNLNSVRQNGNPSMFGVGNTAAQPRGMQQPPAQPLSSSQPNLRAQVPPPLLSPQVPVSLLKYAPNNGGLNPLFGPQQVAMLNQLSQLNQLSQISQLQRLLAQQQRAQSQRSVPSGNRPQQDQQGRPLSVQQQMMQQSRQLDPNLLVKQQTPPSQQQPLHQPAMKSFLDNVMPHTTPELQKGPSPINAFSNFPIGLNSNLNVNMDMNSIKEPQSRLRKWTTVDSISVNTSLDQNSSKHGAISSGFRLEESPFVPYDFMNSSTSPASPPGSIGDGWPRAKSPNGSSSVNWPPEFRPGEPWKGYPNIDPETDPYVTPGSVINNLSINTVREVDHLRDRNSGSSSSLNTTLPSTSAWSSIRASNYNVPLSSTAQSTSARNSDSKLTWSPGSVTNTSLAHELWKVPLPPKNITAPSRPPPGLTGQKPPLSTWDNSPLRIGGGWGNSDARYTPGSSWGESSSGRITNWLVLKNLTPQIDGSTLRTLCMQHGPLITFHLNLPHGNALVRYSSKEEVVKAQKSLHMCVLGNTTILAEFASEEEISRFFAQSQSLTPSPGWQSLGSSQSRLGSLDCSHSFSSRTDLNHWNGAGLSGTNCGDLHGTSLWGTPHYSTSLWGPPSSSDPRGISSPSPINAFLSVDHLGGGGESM

Consider “Protein argonaute-2 (Homo sapiens), Q9UKV8 S387A”, for which the figures for the “effect of a mutation on the interaction” value in experiment [1] and in experiment [2] were “with no effect” and “decreasing interaction strength”, respectively.

As to “Protein argonaute-2 (Homo sapiens), Q9UKV8 S387E”, the entries for the “effect of a mutation on the interaction” value in experiment [3] and in experiment [2] were “with no effect” and “increasing interaction strength”, respectively.

On to “Protein argonaute-4 (Homo sapiens) (from UniProt Q9HCK5) S377A”, for which, in experiment [4], the “effect of a mutation on the interaction” value is given as “decreasing interaction strength”.

On to “Protein argonaute-4 (Homo sapiens) (from UniProt Q9HCK5) S377E”, for which the “effect of a mutation on the interaction” value in experiment [4] is “with no effect”.
